Assay results from patent publication EP1740204B1.
Several values for one entry are separate records, joined by “and”; a condition that tells them apart may be missing. Equal values may be shown once. Blank lines part the entries; values can stand above or below the substance they belong to.

Columns and labels:
[1] = molecular target: MPR 300 affinity matrix (Man6P-receptor affinity matrix); assay: overnight incubation with MPR 300 affinity matrix; activity in unbound, glucose 6-phosphate and mannose 6-phosphate eluted fractions
[2] = molecular target: MPR 300 affinity matrix (Man6P-receptor affinity matrix); assay: MPR 300 affinity column
[3] = molecular target: MPR 300 affinity matrix (Man6P-receptor affinity matrix); assay: MPR 300 affinity matrix binding of enzyme batches

- percent of LAMAN bound to the Man6P-receptor affinity matrix in a Man6P-dependent manner [1]: 4.2%
- percent bound to the MRP 300 column [2]: < 40%
- % phosphorylation (fraction of enzyme binding the Man6P-receptor affinity matrix) [3]: 40% and 30% and 42%
- percent of the amount of enzyme binding to the affinity matrix [3]: 40%
Substance: recombinant human lysosomal alpha-mannosidase (LAMAN) expressed in CHO cells (enzyme)

- percent of LAMAN activity bound to the Man6P-receptor affinity matrix [1]: 73.6%
Substance: recombinant mouse LAMAN with C-terminal polyhistidine tail, secreted from mannose 6-phosphate receptor deficient mouse embryonic fibroblasts (from UniProt O09159 50-1013) (enzyme)

- percent of LAMAN activity bound to the Man6P-receptor affinity matrix in a Man6P-dependent manner [1]: 6.4%
Substance: bovine LAMAN purified from kidney (from UniProt Q29451 51-999) (enzyme)
